The data set concerns the target σ70, native, untagged (pLN12) (UniProt P00579).

σ70, native, untagged (pLN12), sequence (P00579 whole entry): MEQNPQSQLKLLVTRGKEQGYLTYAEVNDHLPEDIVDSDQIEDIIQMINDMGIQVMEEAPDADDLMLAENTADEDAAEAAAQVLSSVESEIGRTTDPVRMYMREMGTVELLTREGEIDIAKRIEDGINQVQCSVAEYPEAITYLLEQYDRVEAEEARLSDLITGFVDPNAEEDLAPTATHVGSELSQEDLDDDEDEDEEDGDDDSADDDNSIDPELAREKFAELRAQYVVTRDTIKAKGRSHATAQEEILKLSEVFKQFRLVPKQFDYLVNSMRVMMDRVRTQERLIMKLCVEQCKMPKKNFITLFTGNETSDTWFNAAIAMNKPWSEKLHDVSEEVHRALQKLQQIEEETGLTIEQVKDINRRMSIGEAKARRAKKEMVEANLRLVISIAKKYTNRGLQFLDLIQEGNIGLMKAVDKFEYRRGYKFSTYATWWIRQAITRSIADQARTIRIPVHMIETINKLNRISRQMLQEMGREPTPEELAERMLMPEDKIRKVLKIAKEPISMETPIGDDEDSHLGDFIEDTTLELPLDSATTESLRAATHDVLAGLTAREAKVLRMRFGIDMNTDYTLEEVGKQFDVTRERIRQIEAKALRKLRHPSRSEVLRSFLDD

“β′ 1-1407 wild type with C-terminal His6 (pTA577)”: the “Growth at 42° C. with plasmid β′ as sole source of β′ (strain RL602)” value was “+”.
